The source of these data is patent US20160333110A1 (CHIOME BIOSCIENCE, published 2016).

For orientation: EC50 means the concentration that produces a half-maximal response.

The target of test [1] is T1, human TROP-2 (hTROP-2) endogenously expressed on the cell surface of human cancer cell lines (human, UniProt P09758 27-323).
T1 construct: also called TACSTD2; PK-59 cells
T1 sequence: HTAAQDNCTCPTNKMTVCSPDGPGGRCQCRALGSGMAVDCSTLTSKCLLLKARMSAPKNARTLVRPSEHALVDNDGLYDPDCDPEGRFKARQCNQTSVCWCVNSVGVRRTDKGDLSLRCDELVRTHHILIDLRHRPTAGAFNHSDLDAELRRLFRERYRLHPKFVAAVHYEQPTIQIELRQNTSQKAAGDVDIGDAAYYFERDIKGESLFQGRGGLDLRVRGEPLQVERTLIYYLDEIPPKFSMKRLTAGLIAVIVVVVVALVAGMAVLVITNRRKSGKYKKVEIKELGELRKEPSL
Kind of test: FACS on PK-59 cells, 0.1 µg antibody. As to the method:
Cancer cells were removed from a culture dish by a trypsin treatment, and a cell suspension was then prepared (cell density: 2×10⁶ cells/mL). An anti-hTROP-2 monoclonal antibody (0.1 μg) was added to 100 μL of the cell suspension, and they were then reacted at 4° C. for 20 minutes. The reaction solution was washed with PBS, and it was then reacted with PE-labeled anti-mouse IgG (BD Biosciences Pharmingen) (0.1 μg) (at 4° C. for 30 minutes). Thereafter, the resultant was analyzed by FACSCalibur (Becton, Dickinson and Company).
Subsequently, the reactivity of the generated anti-hTROP-2 monoclonal antibodies with human cancer cell lines (in which an hTROP-2 protein was endogenously expressed on the cell surface) was examined by FACS analysis.

Test [2] deals with T2, peptide No. 23 of Table 11 (SEQ ID NO: 231) (human).
T2 peptide: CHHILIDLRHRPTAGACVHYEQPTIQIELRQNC
Kind of test: PEPSCAN/CLIPS peptide ELISA, antibody 1 µg/mL. As to the method:
5034 types of the synthesized peptides were covalently bound to PEPSCAN cards (455 peptides/card), and the binding of the synthesized peptides to antibodies was then analyzed by the ELISA method. […] After washing, the resultant was allowed to react with a 1000-fold diluted peroxidase-secondary antibody complex at 25° C. for 1 hour. After washing, a substrate solution (a solution containing 2,2′-azino-di-3-ethylbenzthiazoline sulfonate (ABTS) and 2 μL of 3% hydrogen peroxide solution) was added to the reaction solution, followed by a chromogenic reaction for 1 hour. The binding activity of the antibodies was quantified by photographing with a CCD camera and then performing an image analysis.
Background: An ELISA detects its analyte on a solid surface through an enzyme-linked reagent.

In test [3] the target is T3, recombinant hTACSTD2-Fc-His protein (Creative BioMart) (human, UniProt P09758 27-274, limits assumed).
T3 construct: bought protein; also called hTROP-2 (low-density antigen-coated ELISA); not shown: Fc part of the bought fusion protein; not described; His tag
T3 sequence: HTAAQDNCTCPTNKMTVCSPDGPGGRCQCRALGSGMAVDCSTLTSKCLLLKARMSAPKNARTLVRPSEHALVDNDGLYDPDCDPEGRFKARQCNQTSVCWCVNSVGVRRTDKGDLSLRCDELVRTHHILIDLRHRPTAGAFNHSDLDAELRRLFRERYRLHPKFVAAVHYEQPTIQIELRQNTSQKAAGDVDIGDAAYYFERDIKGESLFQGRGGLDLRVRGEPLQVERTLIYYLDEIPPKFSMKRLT
Kind of test: low-density antigen-coated ELISA, plate coated with 0.1 µg/mL hTACSTD2-Fc-His. How it is done:
Furthermore, antigen affinity was also examined by an ELISA method. ELISA was carried out using an ELISA plate which was coated with the recombinant protein of the hTROP-2 extracellular region as described in Example 3. […] Thereafter, the resultant was washed with a washing buffer (PBS containing 0.05% Tween 20), and a blocking buffer (PBS containing 2% skim milk and 0.05% Tween 20) was then added thereto (200 μl/well) to block it (at room temperature for 1 hour). The resultant was washed with a washing buffer. […] The obtained dilution samples were each added in an amount of 50 μl/well to the above-described ELISA plate (at room temperature for 2 hours). […] After the mixture had been washed with a washing buffer, a TMB (3,3′,5,5′-tetramethylbenzidine: SIGMA) substrate solution was added (50 μl/well) to the resultant to carry out a color reaction. Then, 1 M sulfuric acid (25 μl/well) was added to the reaction product to terminate the reaction. Using Microplate reader Model 550 (BioRad), an absorbance at 450 nm was measured with an absorbance at 655 nm used as a reference.

Test [4] concerns the target T4, recombinant protein of the hTROP-2 extracellular region (human, UniProt P09758 27-263).
T4 construct: produced with baculovirus, purified on Ni Sepharose; also called hTROP-2 EC; hTROP-2-EC-His; not shown: C-terminal myc-His tag from pcDNA4/myc-His A
T4 sequence: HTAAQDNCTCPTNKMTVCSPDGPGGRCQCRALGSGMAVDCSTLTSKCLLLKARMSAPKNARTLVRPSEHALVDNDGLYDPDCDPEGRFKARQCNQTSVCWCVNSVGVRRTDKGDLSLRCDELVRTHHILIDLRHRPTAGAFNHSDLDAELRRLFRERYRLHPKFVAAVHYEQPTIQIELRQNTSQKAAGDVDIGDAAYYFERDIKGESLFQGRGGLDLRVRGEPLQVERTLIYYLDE
In words: monovalent ELISA: antibody captured by anti-mouse IgG, hTROP-2 EC titrated in solution, detected with anti-His. As to the method:
Thereafter, coating was carried out at 4° C. overnight. Thereafter, the reaction product was washed with a washing buffer (PBS containing 0.05% Tween 20), and a blocking buffer (PBS containing 2% skim milk and 0.05% Tween 20) was then added thereto (200 μL/well) to block it (at room temperature for 1 hour). The resultant was washed with a washing buffer. […] The mixture was left at rest at room temperature for 1 hour, and the reaction product was then washed with a washing buffer. The recombinant protein of the hTROP-2 extracellular region described in Example 3 (hTROP-2 EC) was diluted with an ELISA buffer to prepare samples with a concentration range from 5 μg/mL to a series of three-fold dilutions (10 samples). The thus obtained sample was added in each amount of 50 μL/well to the plate. The mixture was left at rest at room temperature for 1 hour, and the reaction product was then washed with a washing buffer. […] The obtained mixture was left at rest at room temperature for 1 hour, and it was then washed with a washing buffer. […] The obtained mixture was left at rest at room temperature for 1 hour, and it was then washed with a washing buffer. […] Using Microplate reader Model 550 (BioRad), an absorbance at 450 nm was measured with an absorbance at 655 nm used as a reference.

B1: anti-hTROP-2 monoclonal antibody clone T6-16 (antibody, mouse IgG2a, V domains shown)
VH: EVQLQQSGPELVKPGASVKISCKASGYTFTDYNMHWVKQSHGKNLEWIGYIYPYNGGTGYNQRFKSRATMTVDKSSSTAYMELRSLTSDDSAVYYCAREDYGSSPSYAMDYWGQGTSVIVSS
VL: DVVMTQTPLSLPVSLGDQASISCRSSQSLVHGNGNTYLHWYLQKPGQSPKLLIYKVSNRFSGVPDRFSGSGSGTDFTLKISRVEAEDLGVYFCSQTTHVPTFGSGTKLEIK
notes: mouse IgG2a, hybridoma FERM BP-11346; also called T6-16 antibody
On to B1, for which the “mean fluorescence intensity, times that with PE-labeled anti-mouse IgG alone” value in test [1] came to 59 times. Also, the “binding of 16-16” value in test [2] was determined as 524. In addition, the EC50 in test [3] is 0.041 µg/mL.

B2: anti-hTROP-2 monoclonal antibody clone K5-70 (antibody, mouse IgG2a, V domains shown)
VH: QVQLQQPGAELVRPGASVKLSCKASGYTFTIYWINWVKQRPGQGLEWIGNIYPSDSYTNYNQKFKDKATLTVDKSSSTAYMQLSSPTSEDSAVYYCTRTSMADYWGQGTTLTVSS
VL: DILLTQSPAILSVSPGERVSFSCRASQSIGTSIHWYQQRTNGSPRLLIKYASESISGIPSRFSGSGSGTDFTLSINSVESEDIADYYCQQSNSWPFTFGSGTKLEIK
notes: mouse IgG2a, hybridoma FERM BP-11251; also called K5-70 antibody; mouse K5-70 antibody
With B2, in test [1], the “mean fluorescence intensity, times that with PE-labeled anti-mouse IgG alone” value was 44 times. The EC50 in test [3] is 0.012 µg/mL; in test [4], 0.007 µg/mL.
